The labels stand for the following.
B1: WW domain-containing transcription regulator protein 1, residues 116 to 162; numbered along this chain, Q9GZV5 (parent)
chain: QSYDVTDELPLPPGWEMTFTATGQRYFLNHIEKITTWQDPRKAMNQP

± gives the uncertainty stated by the source.

Experimental findings from the Human Domainome abundance scans (Beltran et al. 2025) are described below.

Variants of B1 are the subject of the series. As to the kind of experiment: abundance fitness (aPCA) (normalised: wild type 0, dead -1); higher = more abundant; growth selection in yeast, the domain comes from the species named. Conditions: Homo sapiens.
As for A21C, the abundance fitness is -0.167 ± 0.05.

As for A21I, the abundance fitness is -0.1 ± 0.052.

For A21Q, the abundance fitness is -0.272 ± 0.06.

A21M: the abundance fitness is -0.079 ± 0.051.

In the case of A21E, the abundance fitness was -0.002 ± 0.036.

As for A21G, the abundance fitness was -0.072 ± 0.025.

As to A21K, the abundance fitness is -0.019 ± 0.033.

A21H: the abundance fitness was -0.108 ± 0.058.

As for A21N, the abundance fitness stood at 0.019 ± 0.048.

Turning to A21D, the abundance fitness is -0.029 ± 0.042.

Consider A21P, for which the abundance fitness is -0.088 ± 0.05.

Consider T18K, for which the abundance fitness was 0.097 ± 0.031.

T18V: the abundance fitness was -0.035 ± 0.035.

For the variant T18G, the abundance fitness was determined as 0.018 ± 0.028.

In the case of T18D, the abundance fitness was -0.018 ± 0.034.

As to T18P, the abundance fitness was -0.85 ± 0.081.

With T18N, the abundance fitness is -0.159 ± 0.053.

With T18S, the abundance fitness came out at 0.05 ± 0.034.

Regarding T18Q, the abundance fitness was 0.045 ± 0.051.

T18R: the abundance fitness amounted to 0.094 ± 0.031.

As to T18M, the abundance fitness is -0.056 ± 0.046.

T18C: the abundance fitness is -0.009 ± 0.036.

Consider T18E, for which the abundance fitness is -0.064 ± 0.03.

For the variant T18W, the abundance fitness is -0.245 ± 0.036.

Turning to T18Y, the abundance fitness was -0.086 ± 0.051.

For T18A, the abundance fitness is 0.023 ± 0.037.

For T18L, the abundance fitness is -0.047 ± 0.037.

For the variant P12Q, the abundance fitness is -0.494 ± 0.12.

For P12I, the abundance fitness was -0.873 ± 0.2.

P12W: the abundance fitness is -0.826 ± 0.073.

As to P12L, the abundance fitness is -0.738 ± 0.048.

For the variant P12V, the abundance fitness was -0.921 ± 0.091.

For the variant P12R, the abundance fitness is -0.692 ± 0.045.

Consider P12K, for which the abundance fitness was -0.782 ± 0.089.

On to P12T, for which the abundance fitness is -0.758 ± 0.076.

Regarding P12M, the abundance fitness is -0.862 ± 0.085.

With P12D, the abundance fitness is -0.604 ± 0.058.

For P12E, the abundance fitness is -0.601 ± 0.062.

P12N: the abundance fitness was -0.556 ± 0.083.

Turning to P12H, the abundance fitness was -0.907 ± 0.24.

As for P12G, the abundance fitness was -0.49 ± 0.041.

In the case of P12F, the abundance fitness was -0.997 ± 0.15.

On to P12Y, for which the abundance fitness is -0.61 ± 0.062.

As for T20M, the abundance fitness was -0.295 ± 0.076.

Turning to T20Y, the abundance fitness is -0.796 ± 0.038.

In the case of T20Q, the abundance fitness is -0.924 ± 0.15.

In the case of T20C, the abundance fitness was -0.356 ± 0.029.

For the variant T20W, the abundance fitness is -1 ± 0.052.

Consider T20E, for which the abundance fitness was -0.387 ± 0.054.

Consider T20R, for which the abundance fitness was -0.65 ± 0.041.

Consider T20S, for which the abundance fitness is -0.115 ± 0.041.

Take T20K: the abundance fitness is -0.873 ± 0.13.

For T20H, the abundance fitness was -0.451 ± 0.041.

T20P: the abundance fitness is -0.937 ± 0.13.

As to T20L, the abundance fitness was -0.519 ± 0.045.

For the variant T20A, the abundance fitness was -0.287 ± 0.036.

As for T20N, the abundance fitness is -0.081 ± 0.054.

As for T20G, the abundance fitness is -0.381 ± 0.03.

As to G14D, the abundance fitness is -0.259 ± 0.032.

For the variant G14P, the abundance fitness is -0.378 ± 0.043.

For the variant G14Q, the abundance fitness is -0.467 ± 0.048.

Take G14L: the abundance fitness is -0.823 ± 0.029.

Regarding G14C, the abundance fitness is -0.475 ± 0.042.

On to G14R, for which the abundance fitness was -0.583 ± 0.036.

As to G14I, the abundance fitness is -1 ± 0.12.

As for G14M, the abundance fitness was -0.505 ± 0.026.

Turning to G14K, the abundance fitness is -0.466 ± 0.027.

With G14A, the abundance fitness was -0.365 ± 0.027.

For the variant G14S, the abundance fitness was -0.379 ± 0.036.

With G14N, the abundance fitness is -0.071 ± 0.043.

For the variant G14F, the abundance fitness was -0.534 ± 0.054.

Regarding G14W, the abundance fitness was -0.491 ± 0.036.

As for G14E, the abundance fitness is -0.21 ± 0.037.

In the case of G14V, the abundance fitness is -0.748 ± 0.037.

G14Y: the abundance fitness is -0.421 ± 0.028.

With W15C, the abundance fitness is -0.627 ± 0.03.

For W15E, the abundance fitness was -0.689 ± 0.076.

As to W15I, the abundance fitness was -0.802 ± 0.094.

W15P: the abundance fitness is -1.09 ± 0.15.

On to W15D, for which the abundance fitness is -0.532 ± 0.054.

For the variant W15Y, the abundance fitness is -0.351 ± 0.063.

Turning to W15S, the abundance fitness was -0.686 ± 0.026.

W15A: the abundance fitness is -0.913 ± 0.08.

For W15R, the abundance fitness was -0.625 ± 0.029.

For W15M, the abundance fitness was -0.695 ± 0.039.

With W15G, the abundance fitness is -0.636 ± 0.048.

On to W15K, for which the abundance fitness is -0.784 ± 0.076.

In the case of W15L, the abundance fitness is -0.89 ± 0.046.

Regarding W15T, the abundance fitness is -0.753 ± 0.067.

For W15F, the abundance fitness is -0.311 ± 0.055.

For the variant W15V, the abundance fitness is -0.69 ± 0.054.

W15H: the abundance fitness is -0.876 ± 0.17.

In the case of W15N, the abundance fitness was -0.616 ± 0.028.

W15Q: the abundance fitness is -0.5 ± 0.071.

On to E16M, for which the abundance fitness is -0.387 ± 0.038.

Take E16Q: the abundance fitness is -0.035 ± 0.069.

Consider E16V, for which the abundance fitness is -0.193 ± 0.027.

As for E16C, the abundance fitness is -0.28 ± 0.051.

For the variant E16I, the abundance fitness is -0.266 ± 0.028.

As to E16F, the abundance fitness was -0.326 ± 0.046.

As for E16S, the abundance fitness was -0.081 ± 0.027.

Regarding E16A, the abundance fitness is -0.217 ± 0.047.

As to E16L, the abundance fitness was -0.364 ± 0.046.

For the variant E16H, the abundance fitness was -0.684 ± 0.12.

On to E16D, for which the abundance fitness is -0.039 ± 0.05.

Turning to E16R, the abundance fitness is -0.365 ± 0.027.

As to E16Y, the abundance fitness is -0.78 ± 0.13.

Regarding E16G, the abundance fitness is -0.22 ± 0.03.

Turning to E16N, the abundance fitness is -0.58 ± 0.091.

Take E16T: the abundance fitness is -0.215 ± 0.037.

Regarding E16W, the abundance fitness is -0.389 ± 0.06.

E16P: the abundance fitness was -0.864 ± 0.085.

Turning to P13Q, the abundance fitness was determined as 0.026 ± 0.037.

As to P13A, the abundance fitness was -0.043 ± 0.032.

Take P13C: the abundance fitness is -0.222 ± 0.044.

Turning to P13N, the abundance fitness was -0.022 ± 0.052.

Take P13E: the abundance fitness was -0.043 ± 0.039.

P13K: the abundance fitness was -0.084 ± 0.04.

With P13L, the abundance fitness is -0.124 ± 0.034.

In the case of P13Y, the abundance fitness was -0.112 ± 0.051.

As for P13R, the abundance fitness is -0.082 ± 0.028.

As to P13H, the abundance fitness is -0.014 ± 0.03.

Consider P13S, for which the abundance fitness is -0.067 ± 0.024.

In the case of P13I, the abundance fitness was -0.18 ± 0.05.

P13T: the abundance fitness was -0.072 ± 0.045.

With P13G, the abundance fitness was -0.136 ± 0.025.

With P13V, the abundance fitness was -0.058 ± 0.029.

In the case of P13W, the abundance fitness is -0.245 ± 0.04.

As to P13F, the abundance fitness is -0.093 ± 0.047.

As for P13D, the abundance fitness is -0.012 ± 0.043.

In the case of P13M, the abundance fitness is -0.168 ± 0.04.

As to M17W, the abundance fitness is -0.369 ± 0.026.

As to M17Y, the abundance fitness was -0.264 ± 0.044.

Take M17N: the abundance fitness was -0.582 ± 0.046.

With M17E, the abundance fitness was 0.017 ± 0.028.

With M17R, the abundance fitness is -0.279 ± 0.026.

M17C: the abundance fitness is -0.035 ± 0.032.

Turning to M17H, the abundance fitness is -0.44 ± 0.05.

M17T: the abundance fitness is -0.094 ± 0.037.

Consider M17V, for which the abundance fitness was -0.05 ± 0.024.

M17G: the abundance fitness was -0.366 ± 0.026.

As for M17F, the abundance fitness is -0.172 ± 0.036.

With M17I, the abundance fitness is -0.09 ± 0.044.

M17Q: the abundance fitness was determined as 0.037 ± 0.044.

For M17L, the abundance fitness is -0.067 ± 0.031.

M17S: the abundance fitness is -0.102 ± 0.026.

Consider M17K, for which the abundance fitness was -0.214 ± 0.047.

For M17D, the abundance fitness was -0.414 ± 0.046.

For the variant M17P, the abundance fitness was -0.345 ± 0.037.

F19S: the abundance fitness is -0.106 ± 0.041.

For F19I, the abundance fitness amounted to 0.023 ± 0.065.

For the variant F19A, the abundance fitness was -0.06 ± 0.03.

Take F19E: the abundance fitness was -0.017 ± 0.03.

Consider F19T, for which the abundance fitness is -0.108 ± 0.049.

Consider F19D, for which the abundance fitness was -0.319 ± 0.046.

Turning to F19Q, the abundance fitness is -0.121 ± 0.051.

With F19P, the abundance fitness is -0.597 ± 0.033.

Turning to F19M, the abundance fitness was -0.185 ± 0.047.

For the variant F19K, the abundance fitness is -0.047 ± 0.045.

Take F19Y: the abundance fitness is -0.082 ± 0.042.

Take F19C: the abundance fitness is -0.274 ± 0.066.

Turning to F19W, the abundance fitness is -0.021 ± 0.027.

With F19G, the abundance fitness is -0.425 ± 0.027.

Regarding F19R, the abundance fitness is -0.089 ± 0.032.

Turning to F19L, the abundance fitness was -0.115 ± 0.031.

With F19V, the abundance fitness is -0.054 ± 0.032.

F19H: the abundance fitness is -0.385 ± 0.13.
